# Assay results reported in patent US11110115B2, “Nucleic acid molecule with anti-inflammatory and anti-coagulant and organ-protective properties” (APTAHEM AB, priority 2017, dated 2021).
# Entries after “also recorded” stand apart in the source; their conditions may differ.
# What was measured:
# [1] = Expanded toxicology panel of serum in LPS-induced shock; assay type: in vivo, C57BL/6 mice; settings: blood at Hour 28
# Method: In this study, female C57BL/6 mice of 10-12 weeks old (Taconic Biosciences) were used. Animals had free access to autoclaved and acidified drinking water. Animals were housed under standard laboratory conditions, air conditioned and filtered with adequate fresh air supply. Animals were kept in a climate-controlled environment. Lipopolysaccharide (LPS) from E. coli (O111:B4) was diluted in PBS. SEQ ID NO:2 was stored in powder form at 4° C. until use. Powder was added to saline and vortexed into solution to prepare SEQ ID NO:2 stock solution. […] For all other groups, LPS was injected intraperitoneally at 10 mg/kg. Mice were intravenously injected 15 minutes and 60 minutes after LPS administration with SEQ ID NO:2 at concentrations of 10, 25, 50 and 100 mg/kg. […] Blood collected at Hour 28 was analyzed for expanded toxicology panel performed by IDEXX Laboratories, Inc. (N. Grafton, Mass.). We attempted to collect enough blood to run each analysis 5 times for each group. The extended toxicology analysis measured concentrations of AST, ALT, creatine kinase, albumin, total protein, BUN, cholesterol, glucose, phosphorus, triglycerides, HDL cholesterol, bile acid, LDL cholesterol, total bilirubin, GGT, bilirubin conjugated, and creatinine. Here, results are shown for AST, ALT, creatine kinase, albumin, total protein, BUN, cholesterol, phosphorus, triglycerides, cholesterol, and creatinine.
# [2] = Ferric chloride induced arterial thrombosis model (clot weight and size); assay type: in vivo, Sprague-Dawley rats; settings: 60 min after FeCl3; SEQ ID NO:2 5, 20, 40 mg/kg i.v.; Rivaroxaban 10 mg/kg oral; Warfarin 0.5 mg/kg i.v.
# Method: Animal handling was performed according to guidelines of the National Institute of Health (NIH) and the Association for Assessment and Accreditation of Laboratory Animal Care (AAALAC). A total of 36 Sprague-Dawley rats (Envigo RMS) were divided into six groups comprising of 6 animals per group (3 males and 3 females). […] Both were fed ad libitum a rodent diet. Animals had free access to autoclaved and acidified drinking water. Animals were housed under standard laboratory conditions, air conditioned and filtered with adequate fresh air supply. Animals were kept in a climate controlled environment.
# SEQ ID NO:2 (Biospring) (100 mg) was dissolved in 5 ml saline to form a stock solution of 20 mg/ml. Vehicle (saline, Teva) as ready to use for i.v. administration. Rivaroxaban (Bayer, Pharamseed Ltd) dosing solution was diluted at 10 mg/kg (Group 2M). Warfarin (Ceriliant, Pharmaseed Ltd) was diluted at 0.5 mg/kg (Group 3M). […]
# Male and Female rats were anaesthetized by intraperitoneal injection of ketamine/xylazine. […] The time needed for occlusion to occur was measured for up to 60 min, and occlusion time was assigned a value of 60 min for vessels that […].
# Clot formation was followed for 60 minutes following application of FeCl3. […] The artery wall was cut longitudinally; clot was taken out, weighed and measured by caliper. […]
# [3] = test system: IL-10, TNF, IL-6 and IL-1β in serum; assay: LPS-induced cytokine production model, serum cytokines; assay type: in vivo, C57BL/6 mice; settings: 2 h after LPS
# Method: Female C57BL/6 mice (Taconic Biosciences) were 8 weeks of age at the start of the study. Animals had free access to autoclaved and acidified drinking water. Animals were housed under standard laboratory conditions, air conditioned and filtered with adequate fresh air supply. Animals were kept in a climate controlled environment.
# SEQ ID NO:2 (Biospring) (100 mg) was dissolved in 5 ml saline to form a stock solution of 20 mg/ml. Vehicle is saline solution.
# Dexamethasone stock was prepared by mixing dexamethasone and beta-cyclodextrin at a 4:96 ratio, solubilized in PBS at 2 mg dexamethasone/mL and stored at −20° C. Dosing solution of dexamethasone was prepared by diluting the stock solution to 1 mg/mL with PBS. Dexamethasone administered at 5 to 10 mg/kg, i.p. is used as a positive control for suppression of the immune response.
# Two hours after LPS injection mice were bled and serum was isolated and added to EDTA in Gel Clot Activator tubes. At least 100 μl has been analysed. The concentration of IL-10, TNF, IL-6 and IL-1β in serum was measured using eBioscience's Luminex kit, according to manufacturer's protocol. A single analysis was performed on every sample.
# [4] = 50 mg/kg at 15 and 60 min after LPS
# [5] = 50 mg/kg at 60 and 120 min after LPS
# [6] = groups treated i.v. with SEQ ID NO:2 after LPS
# [7] = overall, groups treated i.v. with SEQ ID NO:2
# [8] = 25 mg/kg i.v., not statistically significant
# [9] = 50 mg/kg i.v., not statistically significant
molecule,measurement,setting,value
"SEQ ID NO:2: nucleic acid sequence of SEQ ID NO:1 in which each C and U is fluorinated to increase stability in plasma (nucleic acid, fluorinated C and U; (6)..(7) uracil is fluorinated; (8)..(8) cytosine is fluorinated; (12)..(12) cytosine is fluorinated; (13)..(13) uracil is fluorinated; (14)..(14) cytosine is fluorinated; (17)..(17) uracil is fluorinated; (19)..(20) cytosine is fluorinated; (23)..(23) cytosine is fluorinated; (26)..(26) uracil is fluorinated; (28)..(28) cytosine is fluorinated; (31)..(31) cytosine is fluorinated; (32)) GGGAAUUCGAGCUCGGUACCAACAAUACGACUACACCAUCAAAAGUAUUAUCUUGCAUCGAAGGUUGGCACGUAGCAAGCUCUGCAGUCG",Cholesterol in serum,[1]; 25 mg/kg at 15 and 60 min after LPS,significant improvements
same,Cholesterol in serum,[1]; [4],significant improvements
same,Creatinine in serum,[1]; [4],significant improvements
same,Creatinine in serum,[1]; [5],significant improvements
same,Triglycerides in serum,[1]; [5],significant improvements
same,serum concentration of ALT compared to vehicle treated group,[1]; [6],did not reach statistical significance
same,serum concentration of AST compared to vehicle treated group,[1]; [6],improvements; also recorded: significantly improved
same,serum concentration of BUN compared to vehicle treated group,[1]; [6],improvements; also recorded: significantly improved
same,serum concentration of creatine kinase compared to vehicle treated group,[1]; [6],did not reach statistical significance
same,serum concentration of phosphorus compared to vehicle treated group,[1]; [6],improvements; also recorded: significantly improved
same,serum concentration of cholesterol compared to vehicle treated group,[1]; [7],significantly improved
same,serum concentration of creatinine compared to vehicle treated group,[1]; [7],significantly improved
same,serum concentration of triglycerides compared to vehicle treated group,[1]; [7],significantly improved
same,clot size compared to control group (Vehicle),[2],reduction
same,clot weight compared to control group (Vehicle),[2],reduction
same,IL-1β concentration in serum compared to vehicle group,[3]; 5 mg/kg i.v.,similar
same,IL-6 concentration in serum compared to vehicle group,[3]; 5 mg/kg i.v.,similar
same,TNF concentration in serum compared to vehicle group,[3]; 5 mg/kg i.v.,similar
same,"serum concentration of IL-10, difference to vehicle group",[3]; 25 mg/kg i.v. 5 min before LPS,significant
same,IL-1β concentration in serum compared to vehicle group,[3]; [8],lower
same,IL-6 concentration in serum compared to vehicle group,[3]; [8],lower
same,TNF concentration in serum compared to vehicle group,[3]; [8],lower
same,"serum concentration of IL-10, difference to vehicle group",[3]; 50 mg/kg i.v. 5 min before LPS,significant
same,reduction in IL-1β concentration in serum compared to vehicle group,[3]; 50 mg/kg i.v.,statistically significant
same,IL-6 concentration in serum compared to vehicle group,[3]; [9],lower
same,TNF concentration in serum compared to vehicle group,[3]; [9],lower
same,serum concentration of IL-10 compared to vehicle group,"[3]; SEQ ID NO:2 groups (5, 25, 50 mg/kg i.v.) 5 min before LPS",increase
